Patent US7994123B2, “Hybrid proteins with ErbB4 extracellular domain and neuregulin heparin-binding domain for targeting” (Wayne State University, priority 2004, dated 2011)

Legend:
[1] = tested on: MCF10CA1 human breast cancer cells; experiment: Cell proliferation assay, MCF10CA1; assay type: cell-based
Description: (§1) Cell proliferation assays: All three breast epithelial cell lines were plated at 5000 cells/well in 48 well plates in regular MCF10A/AT or MCF10CA1 media. After incubation for 3 days, 1 nM NRG in MCF10A/AT media or just MCF10A/AT media alone were applied to the cells for another 24 hours followed by washing them with culture media and then counting cell numbers using an hemocytometer on the 4th, 5th, 6th, 7th and 8th day.
(§2) After 2 days, the Optimem I conditioned media was concentrated by Centricon at 4° C. 40 μl of IgB4 conditioned media or 10 μM of tyrosine kinase inhibitor AG1478 were combined with […] 1 nM NRG in MCF10A/AT media for 15 min at room temperature before being added to MCF10CA1 cells for 30 min treatment. […] The amount of each antagonist was determined empirically based on its ability to block NRG-induced activation of L6 cells.

[2] = tested on: erbB receptor phosphorylation (p185) in MCF10CA1 cells; experiment: p185 receptor phosphorylation western blot, MCF10CA1; assay type: cell-based, human; conditions: exogenous NRG, 30 min; above high basal levels
Description: (§3) Western blots and L6 muscle assays: P185 receptor phosphorylation of the three cell lines was measured by phosphotyrosine western blots after NRG treatment for 30 min on 3 day old cultures as described in WO 03/012045 and Li Q & Loeb J A (2001) J Biol Chem; 276:38068-75. […] The media was discarded and phosphotyrosine western blots were performed as above. The membranes were stripped and reprobed with polyclonal rabbit erbB2 for the detection of overall erbB2 protein that was used for quantitation.
as §2

[3] = tested on: MCF10A cells; experiment: Cell proliferation assay, MCF10A; assay type: cell-based, human; conditions: 1 nM NRG for 24 hours, three days after plating
Description: as §1

[4] = tested on: MCF10AT cells; experiment: Cell proliferation assay, MCF10AT; assay type: cell-based, human; conditions: 1 nM NRG for 24 hours, three days after plating
Description: as §1

[5] = tested on: erbB receptor phosphorylation (p185) in MCF10A cells; experiment: p185 receptor phosphorylation western blot, MCF10A; assay type: cell-based, human; conditions: exogenous NRG, 30 min
Description: as §3

[6] = tested on: erbB receptor phosphorylation (p185) in MCF10AT cells; experiment: p185 receptor phosphorylation western blot, MCF10AT; assay type: cell-based, human; conditions: exogenous NRG, 30 min
Description: as §3

[7] = tested on: eight NRG-response proliferation genes in MCF10A cells; experiment: Northern blot of proliferation genes, MCF10A; assay type: cell-based, human; conditions: 1 nM NRG for 24 hours
Description: (§4) RNA preparation and Northern blotting: MCF10A, MCF10AT and MCFCA1 cells were cultured in 25 cm flasks to approximately 60% confluence. The cells were treated with 1 nM NRG in MCF10A/AT media for 24 hours. The cells were then washed with phosphate buffered saline (PBS) once and harvested. Total RNA was extracted from cells using Ultraspec (Biotecx Laboratories, Inc.), “cleaned up” by Rneasy® purification kit (Qiagen, Valencia, Calif.), and subsequently to quantified using a fluorescent dye binding method called Ribogreen (Molecular Probes, Eugene, Oreg.). Northern blots were performed as described previously (Li & Loeb, supra) on RNA extracted from the 3 breast epithelial cell lines after NRG treatment in MCF10A/AT media verses control MCF10A/AT media. Probes were generated by PCR and then prepared by random priming to full-length cDNA clones from the clones provided by Alphagene Inc as described. The membranes were reprobed with a ^32P-labeled GAPDH probe for normalization.

[8] = tested on: eight NRG-response proliferation genes in MCF10AT cells; experiment: Northern blot of proliferation genes, MCF10AT; assay type: cell-based, human; conditions: 1 nM NRG for 24 hours
Description: as §4

[9] = tested on: eight NRG-response proliferation genes in MCF10CA1 cells; experiment: Northern blot of proliferation genes, MCF10CA1; assay type: cell-based, human; conditions: 1 nM NRG for 24 hours
Description: as §4

[10] = Heparin column binding; conditions: conditioned media; anti-HA western blot of flow through and elution
Description: (§5) 4. Cell culture: The L6 cells were cultured in DMEM supplemented with 10% fetal calf serum, 1 mM L-glutamine and 1000 U/ml penicillin/streptomycin at 37° C. in 10% CO2 incubator. The HEK293 cells were cultured in DMEM with 10% fetal calf serum, 1 mM L-glutamine, 2 mM sodium pyruvate, 0.1 mM non-essential amino acids, 1000 U/ml penicillin/streptomycin at 37° C. in 10% CO2 incubator. The selective antibiotics Geneticin 200 μg/ml (Gibco-Invitrogen) was added to the cell cultures of stably transfected HEK293 cells harboring the NRG antagonists. 5. Stable expression of NRG antagonists in HEK293 cells: HEK293 cells were cultured in […] flasks to 80% confluence and transfected with the four NRG antagonist constructs using lipofectamine 2000 (Invitrogen Life Science) as instructed. The antibiotic Geneticin was then added at a concentration of 400 μg/ml to the transfected HEK293 cells to select the positive antagonist transfected cells. After three weeks of Geneticin selection, the transfected HEK293 cells were diluted and plated in 96 well plates to yield single positive clones. The single clones that expressed the highest levels of antagonists (confirmed by western blot using HA antibody) were then maintained in culture media with 200 μg/ml Geneticin. Optimem I (Gibco-Invitrogen) was applied to the stably transfected NRG antagonist cell lines at 37° C. in 10% CO2 incubator for 2 days. The conditioned Optimem I media was then used in the following experiments. 6. Heparin column binding: The conditioned media containing the four NRG antagonists was passed through the heparin column to allow binding to heparin. The excessive unbound antagonist proteins were washed off by 1×PBS twice. The antagonist proteins were then eluted by increasing concentration of NaCl (0.25, 0.3, 0.4, 0.5, 0.6 and 1M). The flow through solution from each step was examined by anti-HA western blots, as described later, to determine heparin binding ability of the antagonists. 7. Purification and quantitation of recombinant proteins: The NRG antagonists were purified by anti-HA affinity matrix (3F10) (rat mAb) according to manufacturer's instructions. Briefly, the column was equilibrated with buffer containing 20 mM Tris pH 7.5, 0.1 M NaCl, 0.1 M EDTA, and each antagonist in conditioned medium was applied individually to the anti-HA affinity matrix. Excess unbound antagonist proteins were washed with 20 volume of washing buffer (20 mM Tris pH 7.5, 0.1 M NaCl, 0.1 M EDTA and 0.05% Tween 20). The bound NRG antagonists were eluted with 0.1 M glycine (pH 2). The purified recombinant protein was then quantified using a BioRad Protein Assay kit (Bio-Rad, Hercules, Calif.) 8. Silver stain: Both the conditioned media and the purified NRG antagonists were resolved on 7.5% reducing SDS-polyacrylamide gels. The gel was fixed with 30% ethanol and 10% acetic acid for 30 min. 10% ethanol and ultrapure water were used subsequently to wash the gel before staining with SilverSNAP stain solution with enhancer for 30 min. The gel was then developed using SilverSNAP developer solution with enhancer. 5% acetic acid was used to stop the reaction when the desired band intensity was reached. The gel was dried on filter paper using a vacuum gel dyer. 9. […] Positive control L6 cells were treated with 50 pM NRG alone. L6 cell lysates were prepared and run on 5% SDS-PAGE gel. Western blots of erbB receptor phosphorylation were performed using 4G10 antibody. 10. Western blot: Western blots were performed on both conditioned NRG antagonist media and the antagonist-treated L6 cells. The antagonist proteins and the L6 cells were solubilized in SDS sample buffer and boiled for 5 min as described above (see also Li et al., supra). The NRG antagonists run on 7.5% SDS-PAGE gel were detected by anti-HA mAb HA.11. Phosphotyrosine mAb 4G10 was used to detect phosphorylated erbB receptor (p185) in L6 cell western blot analysis following resolution on overrun 5% reducing SDS-polyacrylamide gels. […]

[11] = tested on: erbB receptor phosphorylation (p185) in L6 cells; experiment: L6 assay: block of NRG-induced erbB receptor phosphorylation (p185); assay type: cell-based; conditions: preincubated with L6 muscle cells one hour, thoroughly washed before adding recombinant neuregulin
Description: as §5

[12] = tested on: Mat BIII rat breast cancer cells; experiment: Rat syngeneic breast cancer spontaneous metastasis model; assay type: in vivo; conditions: female Fisher rats, 14-day osmotic mini-pump, about 4 mg/kg/day
Description: The rat syngeneic breast cancer system (Xing et al., Int. J. Cancer 67:423-429 (1996) employs Mat BIII rat breast cancer cells. Tumor cells, for example about 10^6 in 0.1 ml PBS, are inoculated into the mammary fat pads of female Fisher rats. At the time of inoculation, a 14-day Alza osmotic mini-pump is implanted intraperitoneally to dispense the test compound. The compound is dissolved in PBS (e.g., 200 mM stock), sterile filtered and placed in the minipump to achieve a release rate of about 4 mg/kg/day. Control animals receive vehicle (PBS) alone or a vehicle control peptide in the minipump. Animals are sacrificed at about day 14. In the rats treated with the active compounds of the present invention, significant reductions in the size of the primary tumor and in the number of metastases in the spleen, lungs, liver, kidney and lymph nodes (enumerated as discrete foci) are observed. Histological and immunohistochemical analysis reveal increased necrosis and signs of apoptosis in tumors in treated animals. Large necrotic areas are seen in tumor regions lacking neovascularization. […] In contrast, treatment with control polypeptides fails to cause a significant change in tumor size or metastasis.

Molecule	effect on growth rate of MCF10CA1 cells ([1]; 1 nM NRG for 24 hours, three days after plating)	induction of erbB receptor phosphorylation (p185), MCF10CA1 [2]	effect on growth rate of MCF10A cells [3]	effect on growth rate of MCF10AT cells [4]	induction of erbB receptor phosphorylation (p185), MCF10A [5]	induction of erbB receptor phosphorylation (p185), MCF10AT [6]	regulation of 8 NRG-response genes, MCF10A [7]	regulation of 8 NRG-response genes, MCF10AT [8]	regulation of 8 NRG-response genes, MCF10CA1 [9]	binding to heparin column [10]	sustained blockade of neuregulin signaling (p185 phosphorylation) [11]	effectiveness at blocking proliferation compared with Herceptin ([1]; 1 nM GlyB4 versus Herceptin 100 μg/ml)	blocking of cancer cell growth ([1]; 1 nM, treated on days 0, 3 and 6, compared to control cells or cells treated with B4)	potency relative to control polypeptides [12]
NRG: recombinant neuregulin β1 IG-EGF form provided by Amgen (protein) KKKERGSGKKPESAAGSQSPALPPRLKEMKSQESAAGSKLVLRCETSSEYSSLRFKWFKNGNELNRKNKPQNIKIQKKPGKSELRINKASLADSGEYMCKVISKLGNDSASANITIVESNEIITGMPASTEGAYVSSESPIRISVSTEGANTSSSTSTSTTGTSHLVKCAEKEKTFCVNGGECFMVKDLSNPSRYLCKCQPGFTGARCTENVPMKVQNQEKAEELYQKRVLTITGICIALLVVGIMCVVAYCKTKKQRKKLHD	increased the initial growth rate	only a small incremental amount of phosphorylation	sustained reduction in the growth rate	only a small, initial reduction in growth rate	induced strong erbB receptor phosphorylation	induced strong erbB receptor phosphorylation	rapid down-regulation of all 8 of these genes	rapid down-regulation of all 8 of these genes	very little down-regulation of only a few of these genes	–	–	–	–	–
GlyB4: purified HBD-S-B4 fusion with HIS tag instead of HA tag (protein, left off: small tags and cut ends) QSGYKKKERGSGKKPESAAGSQSPALPPRLKEMKSQESAAGSKLVLRCETSSEYSSLRFKWFKPNGNELNRKNKQNIKIQKKPGKSELRINKASLADSGEYMCKVISKLGNDSASANITIVESNEIITGMPASTEGAYVSSESPIRISVSTEGANTSSSTSTSTTGTSGTQSVCAGTENKLSSLSDLEQQYRALRKYYENCEVVMGNLEITSIEHNRDLSFLRSVREVTGYVLVALNQFRYLPLENLRIIRGTKLYEDRYALAIFLNYRKDGNFGLQELGLKNLTEILNGGVYVDQNKFLCYADTIHWQDIVRNPWPSNLTLVSTNGSSGCGRCHKSCTGRCWGPTENHCQTLTRTVCAEQCDGRCYGPYVSDCCHRECAGGCSGPKDTDCFACMNFNDSGACVTQCPQTFVYNPTTFQLEHNFNAKYTYGAFCVKKCPHNFVVDSSSCVRACPSSKMEVEENGIKMCKPCTDICPKACDGIGTGSLMSAQTVDSSNIDKFINCTKINGNLIFLVTGIHGDPYNAIEAIDPEKLNVFRTVREITGFLNIQSWPPNMTDFSVFSNLVTIGGRVLYSGLSLLILKQQGITSLQFQSLKEISAGNIYITDNSNLCYYHTINWTTLFSTINQRIVIRDNRKAENCTAEGMVCNHLCSSDGCWGPGPDQCLSCRRFSRGRICIESCNLYDGEFREFENGSICVECDPQCEKMEDGLLTCHGPGPDNCTKCSHFKDGPNCVEKCPDGLQGANSFIFKYADPDRECHPCHPNCTQGCNGPTSHDCIYYPWTGHSTLPQHAKN	–	–	–	–	–	–	–	–	–	binds to heparin	complete and sustained blockade of neuregulin signaling	comparably, if not slightly more, effective	significantly more potent at blocking cancer cell growth	at least two-fold more potent than the relevant control polypeptides
